According to patent publication US20200140532A1 (Ablynx, published 2020):

B1: C0101PMP609C09 (VHH)
VHH: DVQLVESGGGLVQPGGSLRLSCAASGTIFSINVMGWYRQAPGKEREFVAAITTGGRTNYADSVKGRFTISRDNSKNTVYLQMNSLRPEDTAVYYCNAEVTTGWVGYSWYDYWGQGTMVTVSS
notes: Tested as E. coli periplasmic extract; not shown: FLAG3 and His6 tags (phagemid pAX212)
B2: C0101PMP112A03 (VHH)
VHH: EVQLVESGGGLVQPGGSLRLSCAASGSIFSNRFMYWYRQAPGKQRELVASITLSGSTNYADSVKGRFTISRDNAKNTVYLQMNSLKPEDTAVYYCNTFLQNSFYWGQGTQVTVSS
notes: as for B1
B3: C0101PMP115B08 (VHH)
VHH: KVQLVESGGGLVQPGGSLRLSCAASGFTFSMYAMKWVRQAPGKGLEWVSGINSSGGRTNYAGSVKGRFTISRDNAKNTLYLQMNSLKPEDTAVYYCATDFLGGRNSRGQGTQVTVSS
notes: as for B1
B4: C0101PMP604G09 (VHH)
VHH: DVQLVESGGGLVQPGGSLRLSCVASGRTFSSYAMGWFRQAPGKEREFVAAITWSSATTYYADSVKGRFTISRDNSKNTVYLQMNSLRPEDTAVYYCAAARIPVGRRSENWDYWGQGTLVTVSS
notes: as for B1
B5: C0101PMP117G09 (VHH)
VHH: EVQLVESGGGSALPGGSLRLSCAASGITFSSRYMRWYRQAPGRQRELVAAISSGGRTDYVDSVRGRFTLSINNAKNTVYLQMNDLKPEDTAVYYCYRPRMYVDGTYEKELWGQGTLVTVSS
notes: as for B1
B6: C0101PMP117D05 (VHH)
VHH: KVQLVESGGGLVQAGGSLRLSCAASRRTFNMMGWFRQAPGKEREFVAYITWNGGDTRYAESVKGRFTVSRDDVKNTMALQMNRLDPLDTAVYYCGVRIHGSNWSTKADDYDNWGQGTQVTVSS
notes: as for B1
B7: C01010113 (ALB26-606A07-606A07) (VHH, not shown: small tags and cut ends)
VHH 1: DVQLVESGGGLVQPGGSLRLSCVASGRTFSIYGMGWFRQAPGKEREFVAAINGGSRTYYADSVKGRFTISRDNSKNTVYLQMNSLRPEDTAVYYCAADRSGYGTSLDWWYDYWGQGTLVTVSS
VHH 2: B7 VHH 1
notes: also called AL326-606A07-606A07
B8: C0101PMP606A07 (VHH)
VHH: B7 VHH 1
notes: as for B1
B9: C0101PMP604B05 (VHH)
VHH: DVQLVESGGGLVQPGGSLRLSCVASGRTFSIYTMAWFRQAPGKEREFVAAISWSSGRTYYADSVKGRFTISRDNSKNTVYLQMNSLRPEDTAVYYCTAYTGPRSGYDYWGQGTLVTVSS
notes: as for B1
B10: C01010106 (ALB26-604F02-604F02) (VHH, not shown: large carriers; small tags and cut ends)
VHH 1: DVQLVESGGGLVQPGGSLRLSCAASGRTFSSYTMGWFRQAPGKEREFVAAISWSGGRTYYADSVKGRFTISRDNSKNTVYLQMNSLRPEDTAVYYCAAYRRRRASSNRGLWDYWGQGTLVTVSS
VHH 2: B10 VHH 1
B11: C0101PMP604F02 (VHH)
VHH: B10 VHH 1
notes: as for B1
B12: C0101PMP112A01 (VHH)
VHH: EVQLVESGGGLVQTGGSLRLSCVASGRAFSNYIMGWFRQAPGKERDFVAAINWNGVTTHYTDSVKGRFTISRDNAKSTSYLQMDSLKPDDTAVYFCAARGTVYSRTYGVSEEGYMYWGQGTQVTVSS
notes: as for B1
B13: C0101PMP601E09 (VHH)
VHH: DVQLVESGGGLVQPGGSLRLSCAASGLTFSTYAMGWFRQAPGKEREFVAAISWSGSRTYYADSVKGRFTISRDNSKNTVYLQMNSLRPEDTAVYYCAAYRRPRYSPTGTWDYWGQGTLVTVSS
notes: as for B1
B14: C01010109 (ALB26-608A05-608A05) (VHH, not shown: small tags and cut ends)
VHH 1: DVQLVESGGGLVQPGGSLRLSCAASGRTFSTYTMGWFRQAPGKEREFVAAISWSGGTTYYADSVKGRFTISRDNSKNTVYLQMNSLRPEDTAVYYCAARPRYYYYSLYSYDYWGQGTLVTVSS
VHH 2: B14 VHH 1
B15: C0101PMP608A05 (VHH)
VHH: B14 VHH 1
notes: as for B1
B16: C0101PMP604G01 (VHH)
VHH: DVQLVESGGGLVQPGGSLRLSCAASGRTFSSYTMGWFRQAPGKEREFVAAISWSGRTTYYADSVKGRFTISRDNSKNTVYLQMNSLRPEDTAVYYCAAYRRVRYTNLEVWDYWGQGTLVTVSS
notes: as for B1
B17: C0101PMP601D02 (VHH)
VHH: DVQLVESGGGLVQPGGSLRLSCAASGPTFSRYAMGWFRQAPGKEREFVAAITWSSGGRTYYADSVKGRFTISRDNSKNTVYLQMNSLRPEDTAVYYCAAARIPVRTYTSEWNYWGQGTLVTVSS
notes: as for B1
B18: C0101PMP113A01 (VHH)
VHH: EVQLVESGGGLVQPGGSLRLSCSASGFTFSGSWMFWVRQAPGKDYEWVASINSSGGRTYYDDSVKGRFTISRDSAKNTLYLEMNNLKPEDTALYFCARSPRVGSWGQGTQVTVSS
notes: as for B1
B19: C01010118 (ALB26-114F08-114F08) (VHH, not shown: small tags and cut ends)
VHH 1: EVQLVESGGGLVQAGGSLRLSCAASGSTFIINVVRWYRRTPGKQRELVATISSGGNANYVDSVRGRFSISRDGAKNAVDLQMNGLKPEDTAVYYCNVPTTHYGGVYYGPYWGQGTQVTVSS
VHH 2: B19 VHH 1
notes: also called C010100118
B20: C0101PMP114F08 (VHH)
VHH: B19 VHH 1
notes: as for B1
B21: C0101PMP601E08 (VHH)
VHH: DVQLVESGGGLVQPGGSLRLSCTASGRTFSSYAVGWFRQAPGKEREFVAAISRSGRSTYYADSVKGRFTISRDNSKNTVYLQMNSLRPEDTAVYYCAAGLSYYSPHAYYDYWGQGTLVTVSS
notes: as for B1

Assays:
[1] = target: T1, recombinant human Aggrecan G1-IGD-G2 (human, UniProt P16112 20-676); assay: periplasmic extract ELISA
T1 construct: Only the G1-IGD-G2 region was used (R&D Systems 1220-PG is named for the immunogen); also called Hu G1-IGD-G2

[2] = target: T2, recombinant rat Aggrecan G1-IGD-G2 (rat, UniProt P07897 20-684, limits assumed); assay: periplasmic extract ELISA
T2 construct: also called Rat G1-IGD-G2

[3] = target: T3, recombinant dog Aggrecan G1-IGD-G2 (dog, UniProt Q28343 20-693, limits assumed); assay: periplasmic extract ELISA
T3 construct: also called Dog G1-IGD-G2

[4] = target: T4, recombinant bovine Aggrecan G1-IGD-G2 (bovine, UniProt P13608 20-684, limits assumed); assay: periplasmic extract ELISA
T4 construct: also called Bov G1-IGD-G2; Boy G1-IGD-G2

[5] = target: T1, recombinant human Aggrecan G1-IGD-G2; assay: ELISA on recombinant G1-IGD-G2
[6] = target: T2, recombinant rat Aggrecan G1-IGD-G2; assay: ELISA on recombinant G1-IGD-G2
[7] = target: T3, recombinant dog Aggrecan G1-IGD-G2; assay: ELISA on recombinant G1-IGD-G2
[8] = target: recombinant human Neurocan (human, UniProt O14594 23-1321, limits assumed); assay: ELISA on recombinant human Neurocan
[9] = target: T4, recombinant bovine Aggrecan G1-IGD-G2; assay: ELISA on recombinant G1-IGD-G2

| Binder | OD 450 nm [1] [OD 450 nm] | OD 450 nm [2] [OD 450 nm] | OD 450 nm [3] [OD 450 nm] | OD 450 nm [4] [OD 450 nm] | EC50 [5] [nM] | EC50 [6] [nM] | EC50 [7] [nM] | EC50 [8] [nM] | EC50 [9] [nM] |
| --- | --- | --- | --- | --- | --- | --- | --- | --- | --- |
| B1 | 2.1 | 0.97 | 1.52 | 1.08 |  |  |  |  |  |
| B2 | 2.51 | 1.69 | 1.47 | 0.73 |  |  |  |  |  |
| B3 | 1.65 | 1.85 | 1.8 | 0.84 |  |  |  |  |  |
| B4 | 2.41 | 1.4 | 1.16 | 1.21 |  |  |  |  |  |
| B5 | 2.21 | 2.29 | 1.68 | 0.76 |  |  |  |  |  |
| B6 | 2.25 | 2.35 | 1.53 | 1.92 |  |  |  |  |  |
| B7 |  |  |  |  | 0.67 | 0.12 | 3 | 0.87 |  |
| B8 | 0.71 | 2.31 | 1.47 |  |  |  |  |  |  |
| B9 | 2.48 | 1.98 | 1.27 | 1.63 |  |  |  |  |  |
| B10 |  |  |  |  | 0.066 | 0.1 | 0.097 |  |  |
| B11 | 2.41 | 0.78 | 1.04 | 0.82 |  |  |  |  |  |
| B12 | 2.5 | 2.03 | 1.57 | 2.41 |  |  |  |  |  |
| B13 |  | 2.61 | 2.57 |  |  |  |  |  |  |
| B14 |  |  |  |  | 0.1 | 0.095 | 0.33 |  | 0.077 |
| B15 | 2.33 | 2.39 | 0.86 | 2.27 |  |  |  |  |  |
| B16 | 2.27 | 0.6 | 1.55 | 0.68 |  |  |  |  |  |
| B17 | 2.58 | 2.59 | 2.58 |  |  |  |  |  |  |
| B18 | 2.56 | 2.53 | 2.51 | 2.54 |  |  |  |  |  |
| B19 |  |  |  |  | 0.11 | 0.19 | 0.24 |  | 0.37 |
| B20 | 2.38 | 2.05 | 1.9 | 1.18 |  |  |  |  |  |
| B21 | 2.28 | 2.49 | 0.57 | 1.68 |  |  |  |  |  |
